Experimental data as given in the supplement of paper PMC7877785.
± gives the uncertainty stated by the source.

Test: self-splicing fitness, log relative to wild type (ln ratio); higher = more splicing; Tetrahymena group I intron in knt gene, E. coli kanamycin selection, DiMSum; sequences stand for … in CUCUCU…GGAGGGAAAAGUUAUCAGGCAUGCACCUGGUAGCUAGUCUUUAAACCAAUAGAUUGCAUCGGUUUAAAAGGCAAGACCGUCAAAUUGCGGGAAAGGGGUCAACAGCCGUUCAGUACCAAGUCUCAGGGGAAACUUUGAGAUGGCCUUGCAAAGGGUAUGGUAAUAAGCUGACGGACAUGGUCCUAACCACGCAGCCAAGUCCUAAGUCAACAGAUCUUCUGUUGAUAUGGAUGCAGUUCACAGACUAAAUGUCGGUCGGGGAAGAUGUAUUCUUCUCAUAAGAUAUAGUCGGACCUCUCCUUAAUGGGAGCUAGCGGAUGAAGUGAUGCAACACUGGAGCCGCUGGGAACUAAUUUGUAUGCGAAAGUAUAUUGAUUAGUUUUGGAGUACUCGUGGUCG
Summary of the method: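 DiMSum derived fitness as the error-weighted combination of fold changes across replicates, kanamycin versus no kanamycin, normalised to wild type. E. coli BL21(DE3) held the library, which randomised all eight P1ex-region intron nucleotides within the knt kanamycin-resistance gene on pET-22b(+). Six replicate transformations grew overnight at 37°C or 30°C on LB agar with or without 25 μg/mL kanamycin, also containing 100 μg/mL carbenicillin, 50 μM IPTG and 0.2% rhamnose, and pooled colonies were amplicon-sequenced on an Illumina HiSeq 2500.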

Sequence	self-splicing fitness (ln) (30 °C)	self-splicing fitness (ln) (37 °C)
GAUCAGCAAUAUUACGACAA	-0.267 ± 0.081	-0.396 ± 0.089
CGGUAGCAAUAUUACGUGAU	-1.49 ± 0.14	-0.851 ± 0.18
GGAAAGCAAUAUUACGUUAC	-2.63 ± 0.16	-0.204 ± 0.11
AGCUAGCAAUAUUACGGUAA	-2.34 ± 0.26	-1.53 ± 0.26
CCGCAGCAAUAUUACGUCCC		-2.65 ± 0.49
AAGGAGCAAUAUUACGCGUA	-3.11 ± 0.28	-1.29 ± 0.17
GGGGAGCAAUAUUACGAAGU	-2.04 ± 0.34	
AUCUAGCAAUAUUACGAAUU	-2.94 ± 0.18	-1.74 ± 0.19
UUUUAGCAAUAUUACGGUGC	-3.63 ± 0.24	-2.98 ± 0.38
UAGGAGCAAUAUUACGUCGA	-3.16 ± 0.2	-1.55 ± 0.21
CGGCAGCAAUAUUACGAACC	-0.757 ± 0.33	-0.368 ± 0.37
UUCUAGCAAUAUUACGCCCU	-2.51 ± 0.27	-0.693 ± 0.19
UUGAAGCAAUAUUACGAGCC	-2.69 ± 0.48	-1.56 ± 0.49
CCGAAGCAAUAUUACGGCUA	-2.89 ± 0.29	-1.64 ± 0.24
UUCCAGCAAUAUUACGGCGG	-3.09 ± 0.17	-2.72 ± 0.27
CUACAGCAAUAUUACGAAAC	-3.35 ± 0.26	-2.37 ± 0.39
ACUCAGCAAUAUUACGGAUC	-1.46 ± 0.1	-0.352 ± 0.11
CGCUAGCAAUAUUACGGUAA	-1.73 ± 0.1	-2.12 ± 0.11
GGAGAGCAAUAUUACGUGUA	-2.77 ± 0.29	-3.17 ± 0.33
CCCGAGCAAUAUUACGUAUA	-2.79 ± 0.17	-2.82 ± 0.26
UCAUAGCAAUAUUACGAUGU	-2.55 ± 0.12	-0.735 ± 0.1
ACGCAGCAAUAUUACGCGUA	-3.63 ± 0.23	-2.1 ± 0.15
CAGCAGCAAUAUUACGUCGU	-3.42 ± 0.18	-0.9 ± 0.09
AUUCAGCAAUAUUACGGACU	0.0759 ± 0.063	0.414 ± 0.083
GGAAAGCAAUAUUACGCAUC	-2.7 ± 0.17	-2.49 ± 0.31

Sequence	self-splicing fitness (ln) (30 °C)	self-splicing fitness (ln) (37 °C)
ACUUAGCAAUAUUACGUGGA	-2.47 ± 0.13	-2.7 ± 0.16
GGCGAGCAAUAUUACGUCUC	-1.87 ± 0.23	-1.67 ± 0.38
CAGUAGCAAUAUUACGGAAU	-3.7 ± 0.27	-2.55 ± 0.18
GUGCAGCAAUAUUACGCUGA	-2.38 ± 0.17	-1.6 ± 0.16
CGAUAGCAAUAUUACGCCAC	-2.44 ± 0.44	-0.944 ± 0.43
CCAUAGCAAUAUUACGACAC	-2.94 ± 0.29	-1.99 ± 0.37
CGUUAGCAAUAUUACGGAUA	-1.83 ± 0.37	-2.08 ± 0.31
GUGAAGCAAUAUUACGCUGC	-3.05 ± 0.21	-2.19 ± 0.21
GAGUAGCAAUAUUACGGUAU	-2.6 ± 0.13	-2.22 ± 0.2
CAAAAGCAAUAUUACGGGAU	-3.95 ± 0.19	-3.04 ± 0.22
AGCCAGCAAUAUUACGAGCC		-0.75 ± 0.32
AAUAAGCAAUAUUACGCAAU	-1.59 ± 0.075	-1.22 ± 0.082
UUCUAGCAAUAUUACGAUCC		-2.65 ± 0.38
AACGAGCAAUAUUACGGGCA	-2.92 ± 0.24	-2.38 ± 0.24
UUAAAGCAAUAUUACGCGUG	-0.256 ± 0.056	-0.26 ± 0.068
CCUCAGCAAUAUUACGAAGA	-3.71 ± 0.3	-2.31 ± 0.25
GAUCAGCAAUAUUACGAUUA	-0.622 ± 0.086	0.0655 ± 0.1
GGUGAGCAAUAUUACGCGGC	-2.2 ± 0.27	-1.9 ± 0.28
ACGCAGCAAUAUUACGAUUC	-2.28 ± 0.085	-1.43 ± 0.096
GCGUAGCAAUAUUACGCCGC	-2.36 ± 0.42	
UCCUAGCAAUAUUACGAGCG	-1.5 ± 0.099	-1.15 ± 0.14
CAGUAGCAAUAUUACGCCCU		-1.3 ± 0.32
AUCAAGCAAUAUUACGGCUC	-0.551 ± 0.063	-0.7 ± 0.076
AGUCAGCAAUAUUACGGAGC	-2.57 ± 0.12	-1.74 ± 0.13
